Measured values from publication PMC9929448.

Legend:
[1] = molecular target: BMP-2 N102D mutant, mature form (human)
[2] = molecular target: T1, Bone morphogenetic protein 2 (BMP-2), wild type, mature form (human)
T1 sequence (P12643 whole entry, looked up): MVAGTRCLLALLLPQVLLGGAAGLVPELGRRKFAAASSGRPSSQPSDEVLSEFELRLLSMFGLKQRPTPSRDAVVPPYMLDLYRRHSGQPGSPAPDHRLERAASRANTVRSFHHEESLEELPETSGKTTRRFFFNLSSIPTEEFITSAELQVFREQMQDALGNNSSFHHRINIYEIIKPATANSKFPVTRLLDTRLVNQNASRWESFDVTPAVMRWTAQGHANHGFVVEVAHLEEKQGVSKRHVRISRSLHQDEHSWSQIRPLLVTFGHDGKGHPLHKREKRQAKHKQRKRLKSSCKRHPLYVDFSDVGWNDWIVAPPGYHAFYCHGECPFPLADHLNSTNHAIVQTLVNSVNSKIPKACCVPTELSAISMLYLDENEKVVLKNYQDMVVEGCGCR

IC50 of Noggin (0.16 to 160 nM) on ALP activity and Alizarin Red staining (calcium deposition) of ATDC5 cells stimulated with 10 nM N102D BMP-2, day 7 [1]: 8 nM
IC50 of Noggin (0.16 to 160 nM) on ALP activity and Alizarin Red staining (calcium deposition) of ATDC5 cells stimulated with 10 nM WT BMP-2, day 7 [2]: 8 nM
B1: Noggin (residues 28-232) (natural protein)
chain: MQHYLHIRPAPSDNLPLVDLIEHPDPIFDPKEKDLNETLLRSLLGGHYDPGFMATSPPEDRPGGGGGAAGGAEDLAELDQLLRQRPSGAMPSEIKGLEFSEGLAQGKKQRLSKKLRRKLQMWLWSQTFCPVLYAWNDLGSRFWPRYVKVGSCFSKRSCSVPEGMVCKPSKSVHLTVLRWRCQRRGGQRCGWIPIQYPIISECKCSC
modifications: biotin (biotinylated Noggin in the BLI experiments); methionine oxidation, mainly on the N-terminal methionine, in part of the sample
